Laboratory results from paper PMC2853121.

Experiments:
[1] = target: T1, iC3b (Homo sapiens, UniProt P01024;P01024;P01024 23-667;749-1303;1321-1663); experiment: EMSA
[2] = target: C3b (Homo sapiens, UniProt P01024;P01024 23-667;749-1663); experiment: filter binding
[3] = target: T1, iC3b; experiment: filter binding

T1 sequence (P01024 23-667, chain 1 of 3): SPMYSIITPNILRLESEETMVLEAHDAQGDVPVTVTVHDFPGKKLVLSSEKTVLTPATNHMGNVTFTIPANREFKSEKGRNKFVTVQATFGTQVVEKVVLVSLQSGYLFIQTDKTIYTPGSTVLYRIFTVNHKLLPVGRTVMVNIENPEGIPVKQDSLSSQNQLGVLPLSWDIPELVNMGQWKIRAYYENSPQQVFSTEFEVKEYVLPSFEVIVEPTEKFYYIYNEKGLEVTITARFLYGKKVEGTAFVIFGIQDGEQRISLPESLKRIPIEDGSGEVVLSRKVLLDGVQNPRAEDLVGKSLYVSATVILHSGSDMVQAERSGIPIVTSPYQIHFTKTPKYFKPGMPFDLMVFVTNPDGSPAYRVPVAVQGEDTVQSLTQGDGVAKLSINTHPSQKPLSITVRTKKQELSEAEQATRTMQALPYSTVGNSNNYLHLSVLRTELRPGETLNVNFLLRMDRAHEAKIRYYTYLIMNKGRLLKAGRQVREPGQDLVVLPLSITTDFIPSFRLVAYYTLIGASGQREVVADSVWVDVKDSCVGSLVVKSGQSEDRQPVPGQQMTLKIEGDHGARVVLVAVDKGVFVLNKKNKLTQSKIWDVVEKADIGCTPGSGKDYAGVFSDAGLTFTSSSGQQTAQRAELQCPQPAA
T1 sequence (P01024 749-1303, chain 2 of 3): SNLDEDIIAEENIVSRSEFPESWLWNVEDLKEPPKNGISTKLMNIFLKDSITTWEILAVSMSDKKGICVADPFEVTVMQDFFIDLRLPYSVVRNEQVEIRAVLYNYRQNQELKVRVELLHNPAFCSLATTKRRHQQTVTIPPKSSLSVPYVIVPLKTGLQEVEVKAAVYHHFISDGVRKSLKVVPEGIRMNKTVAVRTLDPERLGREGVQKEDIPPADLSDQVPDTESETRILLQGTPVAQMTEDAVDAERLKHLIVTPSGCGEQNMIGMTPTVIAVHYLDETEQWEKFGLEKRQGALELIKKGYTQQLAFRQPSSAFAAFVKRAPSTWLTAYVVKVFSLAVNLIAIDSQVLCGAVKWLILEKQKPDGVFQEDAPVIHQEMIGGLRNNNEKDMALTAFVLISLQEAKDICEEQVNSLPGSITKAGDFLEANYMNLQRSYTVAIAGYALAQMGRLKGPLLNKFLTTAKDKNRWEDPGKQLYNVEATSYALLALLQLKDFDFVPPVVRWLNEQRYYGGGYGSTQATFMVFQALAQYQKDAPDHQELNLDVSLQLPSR
T1 sequence (P01024 1321-1663, chain 3 of 3): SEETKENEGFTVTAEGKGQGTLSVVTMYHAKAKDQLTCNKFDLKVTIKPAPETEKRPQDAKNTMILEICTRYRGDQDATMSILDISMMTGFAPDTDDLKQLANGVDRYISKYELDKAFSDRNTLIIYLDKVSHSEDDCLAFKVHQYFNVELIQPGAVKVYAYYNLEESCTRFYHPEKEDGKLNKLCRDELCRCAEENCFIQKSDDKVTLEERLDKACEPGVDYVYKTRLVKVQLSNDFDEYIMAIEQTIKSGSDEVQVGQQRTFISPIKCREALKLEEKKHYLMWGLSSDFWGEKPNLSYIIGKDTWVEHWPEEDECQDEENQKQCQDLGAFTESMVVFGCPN
C3b, sequence (P01024 23-667, chain 1 of 2): as the sequence (P01024 23-667, chain 1 of 3) above
C3b, sequence (P01024 749-1663, chain 2 of 2): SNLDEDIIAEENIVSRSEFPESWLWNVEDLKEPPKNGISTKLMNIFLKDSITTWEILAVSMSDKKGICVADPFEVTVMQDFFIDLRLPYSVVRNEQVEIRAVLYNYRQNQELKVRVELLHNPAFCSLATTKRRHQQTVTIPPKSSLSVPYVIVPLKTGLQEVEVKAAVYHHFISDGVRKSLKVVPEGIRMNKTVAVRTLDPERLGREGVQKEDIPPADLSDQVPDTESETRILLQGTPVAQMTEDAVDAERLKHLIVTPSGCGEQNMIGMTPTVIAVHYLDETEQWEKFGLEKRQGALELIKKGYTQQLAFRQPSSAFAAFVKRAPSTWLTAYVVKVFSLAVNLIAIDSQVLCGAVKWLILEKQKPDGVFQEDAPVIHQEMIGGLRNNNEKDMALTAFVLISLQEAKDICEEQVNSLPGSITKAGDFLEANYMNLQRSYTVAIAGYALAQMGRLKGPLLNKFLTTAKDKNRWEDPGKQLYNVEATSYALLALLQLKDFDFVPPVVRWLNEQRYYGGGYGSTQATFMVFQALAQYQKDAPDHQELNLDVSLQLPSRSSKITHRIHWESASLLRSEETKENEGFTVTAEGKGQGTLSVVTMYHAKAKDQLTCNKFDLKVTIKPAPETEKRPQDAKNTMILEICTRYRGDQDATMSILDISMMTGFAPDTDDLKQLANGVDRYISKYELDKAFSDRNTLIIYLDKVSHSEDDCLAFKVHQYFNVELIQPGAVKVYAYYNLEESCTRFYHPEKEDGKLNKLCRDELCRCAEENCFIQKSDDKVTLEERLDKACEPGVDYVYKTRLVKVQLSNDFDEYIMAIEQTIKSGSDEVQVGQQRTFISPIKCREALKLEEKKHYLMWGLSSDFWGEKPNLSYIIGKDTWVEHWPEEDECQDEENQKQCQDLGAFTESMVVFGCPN

Binder	binding result [1]	binding result [2]	binding result [3]
AptC3-2 (structured_RNA) RNA: GGGAGAAUUCAACUGCCAUCUAGGCAAAUCCGCGAGCGCCGGUACCGGUGGCGCAUGCCCACACAGCACUAAACGAGUACUACAAGCUUCUGGACUCGGU	no binding	–	–
Apt[C3-GFP] (structured_RNA) RNA: GGGAGCCUGAUGGCAGGGCGAAUUGGGUGGGGAAAGUCCUUAAAAGAGGGCCACCACAGAAGCAAUGGGCUUCUGGACUCGGUCCCGCUCGGCUAGAAGAAUAUGACGGAUUGACCGUAUCAGGGUAGCCGAGC	–	binds	binds
